In publication PMC7660097, “Structural Insights into the Interactions of Candidal Enolase with Human Vitronectin, Fibronectin and Plasminogen” (International Journal of Molecular Sciences, 2020) one finds Kd, koff and kon data, which are given here for three molecules.

First the molecules themselves.
B2: human vitronectin (natural protein)
chain: DQESCKGRCTEGFNVDKKCQCDELCSYYQSCCTDYTAECKPQVTRGDVFTMPEDEYTVYDDGEEKNNATVHEQVGGPSLTSDLQAQSKGNPEQTPVLKPEEEAPAPEVGASKPEGIDSRPETLHPGRPQPPAEEELCSGKPFDAFTDLKNGSLFAFRGQYCYELDEKAVRPGYPKLIRDVWGIEGPIDAAFTRINCQGKTYLFKGSQYWRFEDGVLDPDYPRNISDGFDGIPDNVDAALALPAHSYSGRERVYFFKGKQYWEYQFQHQPSQEECEGSSLSAVFEHFAMMQRDSWEDIFELLFWGRTSAGTRQPQFISRDWHGVPGQVDAAMAGRIYISGMAPRPSLAKKQRFRHRNRKGYRSQRGHSRGRNQNSRRPSRATWLSLFSSEESNLGANNYDDYRMDWLVPATCEPIQSVFFFSGDKYYRVNLRTRRVDTVDPPYPRSIAQYWLGCPAPGHL
modifications: biotin (NHS-biotin) in the cell-binding assays of Figure 1; sulfo-SDAD on amino groups in the cross-linking
notes: Vitronectin, human; also called VTR; VTR-Bt; source: bought: R&D Systems

In experiment [1] the target is B2. Briefly: SPR; BIACORE 3000; enolase amine-coupled to a CM5 chip (about 300 RU); human protein as analyte (40-750 nM or 75-750 nM), 30 µL/min, 25 °C, 10 mM HEPES, 150 mM NaCl, 0.005% P20, pH 7.4; 1:1 Langmuir global fit with baseline drift and local Rmax; regeneration 1 M NaCl. Particulars: both partners purified.
Experiment [2] addresses T1, C. albicans cell surface-exposed enolase (C. albicans, UniProt P30575 1-440, biotin (biotin-labeled enolase) in the microplate ligand-binding assay).
T1 construct: Enolase of Candida albicans (strain ATCC 10231), form exposed at the cell surface; identified by LC-MS/MS, non-glycosylated, 47 kDa; Same protein as m2, isolated from another compartment; also called C. albicans enolase, cell wall; cell wall-associated enolase
Described as above. Particulars: both partners purified.

B1: C. tropicalis cytosolic enolase (enzyme, UniProt C5MD83 1-440, looked up)
chain: MSYATKIHARTVYDSRGNPTVEVELTTDNGMFRSIVPSGASTGIHEALELRDGDKSKWLGKGVLKAVSNVNDIIAPALIDAKIDVNDQSKIDEFMIKLDGTPNKSKLGANAILGVSLAAANAAAANQGIPLYQHIANLSKSKKDKYVLPVPFQNVLNGGAHAGGDLAFQEFMIVPTGAESFSEAMRIDSEVYHTLKSLAKKKYGQSAGNVGDEGGVAPDLRTPEEALDLIVESIEQAGHTGKVKIAMDPASSEFFKDGKYDLDFKNPNPDPAKRLSGKELAELYERLINKYPIVLLEDPFAEDDWDAWVHFFKIVGDKVQIVADDLTVTNPIRIKKAIEKKCANALLVKVNQIGTLSESIVAANDAFGAGWGVMVSHRSGETEDTFIADLVVGLRAGQIKTGAPARSERLAKLNQILRIEESLGDDAIYAGKNFAVAHQL
modifications: biotin (biotin-labeled enolase) in the microplate assays
notes: Enolase of Candida tropicalis (strain T1, ATCC MYA-3404), cytosolic form; identified by LC-MS/MS; also called C. tropicalis enolase, cytosol; source: purified from C. tropicalis T1 (ATCC MYA-3404) cytosol (ammonium sulphate fractionation, MonoQ, MonoS)
As to B1, in experiment [1], the Kd worked out at 683 nM, the koff stood at 0.00915 s⁻¹ and the kon was found to be 13400 M⁻¹ s⁻¹.
In experiment [2], B2 returned a Kd of 31.1 nM, a koff of 0.00417 s⁻¹ and a kon of 134000 M⁻¹ s⁻¹.

B3: C. albicans cytosolic enolase (enzyme, UniProt P30575 1-440, looked up)
chain: MSYATKIHARYVYDSRGNPTVEVDFTTDKGLFRSIVPSGASTGVHEALELRDGDKSKWLGKGVLKAVANVNDIIAPALIKAKIDVVDQAKIDEFLLSLDGTPNKSKLGANAILGVSLAAANAAAAAQGIPLYKHIANISNAKKGKFVLPVPFQNVLNGGSHAGGALAFQEFMIAPTGVSTFSEALRIGSEVYHNLKSLTKKKYGQSAGNVGDEGGVAPDIKTPKEALDLIMDAIDKAGYKGKVGIAMDVASSEFYKDGKYDLDFKNPESDPSKWLSGPQLADLYEQLISEYPIVSIEDPFAEDDWDAWVHFFERVGDKIQIVGDDLTVTNPTRIKTAIEKKAANALLLKVNQIGTLTESIQAANDSYAAGWGVMVSHRSGETEDTFIADLSVGLRSGQIKTGAPARSERLAKLNQILRIEEELGSEAIYAGKDFQKASQL
modifications: biotin (biotin-labeled enolase) in the microplate assays
notes: Enolase of Candida albicans (strain ATCC 10231), cytosolic form; identified by LC-MS/MS; also called C. albicans enolase, cytosol; source: purified from C. albicans ATCC 10231 cytosol (ammonium sulphate fractionation, MonoQ, MonoS)
In experiment [1], B3 showed a Kd of 55.3 nM, a koff of 0.00493 s⁻¹ and a kon of 89100 M⁻¹ s⁻¹.

One may read the Kd as the constant that tells how readily two partners part at equilibrium. Lower therefore signals a tighter complex. In general, koff refers to a measure of how fast the partners let go of each other. Read a low koff as a long-lived complex. One may read the kon as the rate constant with which the complex forms. High values mean faster complex formation, low ones slower complex formation.
